Measurements: PMC8927971

Test system: CIZ1 N571ΔPLD2 (Mus musculus)
Test: EMSA
Settings: 10 mM Tris-HCl pH 7.5, 30 mM NaCl, 2.5 mM MgCl2, 0.2 mM DTT, 0.1% IGEPAL CA-630, 0.1 mg/ml yeast tRNA, 0.4 U RNaseOUT, 1% glycerol; 30 C 20 min; 0.7% agarose …

Row | Substance | K half [nM]
1 | Xist repeat E proximal | 100
2 | Xist repeat A | 100
